T1: bovine pancreatic trypsin (Bos taurus, UniProt P00760)
T1 construct: purchased Worthington (Worthington Biochemical Corp.)
T1 sequence (P00760 24-246): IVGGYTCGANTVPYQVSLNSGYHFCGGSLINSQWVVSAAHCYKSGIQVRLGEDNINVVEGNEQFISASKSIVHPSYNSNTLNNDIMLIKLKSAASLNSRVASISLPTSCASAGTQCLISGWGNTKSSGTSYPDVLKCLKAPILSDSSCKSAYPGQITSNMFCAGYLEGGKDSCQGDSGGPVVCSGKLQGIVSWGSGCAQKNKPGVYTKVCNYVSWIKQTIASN

B1: K37S: BBIt-AV (SEQ ID NO:187) with single substitution K37S (protein)
chain: DDESSKPCCDQCACTKSNPPQCRCSDMRLNSCHSACSSCACYNLYGWTCFCVDITDFCYEPCKPSE
modifications: synthetic BBIt-AV sequence
B2: T55N: BBIt-AV (SEQ ID NO:187) with single substitution T55N (protein)
chain: DDESSKPCCDQCACTKSNPPQCRCSDMRLNSCHSACKSCACYNLYGWTCFCVDINDFCYEPCKPSE
modifications: synthetic BBIt-AV sequence
B3: V52F: BBIt-AV (SEQ ID NO:187) with single substitution V52F (protein)
chain: DDESSKPCCDQCACTKSNPPQCRCSDMRLNSCHSACKSCACYNLYGWTCFCFDITDFCYEPCKPSE
modifications: synthetic BBIt-AV sequence
B4: I54M: BBIt-AV (SEQ ID NO:187) with single substitution I54M (protein)
chain: DDESSKPCCDQCACTKSNPPQCRCSDMRLNSCHSACKSCACYNLYGWTCFCVDMTDFCYEPCKPSE
modifications: synthetic BBIt-AV sequence
B5: E60K: BBIt-AV (SEQ ID NO:187) with single substitution E60K (protein)
chain: DDESSKPCCDQCACTKSNPPQCRCSDMRLNSCHSACKSCACYNLYGWTCFCVDITDFCYKPCKPSE
modifications: synthetic BBIt-AV sequence
B6: F50V: BBIt-AV (SEQ ID NO:187) with single substitution F50V (protein)
chain: DDESSKPCCDQCACTKSNPPQCRCSDMRLNSCHSACKSCACYNLYGWTCVCVDITDFCYEPCKPSE
modifications: synthetic BBIt-AV sequence
B7: I54T: BBIt-AV (SEQ ID NO:187) with single substitution I54T (protein)
chain: DDESSKPCCDQCACTKSNPPQCRCSDMRLNSCHSACKSCACYNLYGWTCFCVDTTDFCYEPCKPSE
modifications: synthetic BBIt-AV sequence
B8: T55K: BBIt-AV (SEQ ID NO:187) with single substitution T55K (protein)
chain: DDESSKPCCDQCACTKSNPPQCRCSDMRLNSCHSACKSCACYNLYGWTCFCVDIKDFCYEPCKPSE
modifications: synthetic BBIt-AV sequence

Marks after values point to notes of the source that are not given here.

The data set concerns the target T1, bovine pancreatic trypsin. Nature of the data set: BBIt-AV:BCE activity ratio, microtiter plate screens (primary, quadruplicate secondary). It is filed as biochemical. The settings on record: single substitution in BBIt-AV, in the presence of reducing agent. The method, then: The cultures in each master plate were thawed and a pin replicator was used to inoculate a new sterile microtiter plate containing 150 μl of Luria broth with 5 μg/ml chloramphenicol in each well. The plates were grown for ˜10 hrs in a humidified and aerated box as described above. For controls, the cultures in two wells were replaced with BBI and BBI-AV cultures that had been grown concurrently in 15 ml culture tubes (5 ml of Luria broth with 5 μg/ml chloramphenicol). After the cultures were grown, the plate was used to inoculate two duplicate 96-well filter plates (Millipore, MSGV2210) containing 150 μl of MBD medium (Vogtentanz et al., 2007) with 5 μg/ml chloramphenicol in each well by using a pin replicator. The duplicate plates were grown for ˜14 hours (as above, with plastic spacers placed between the stacked plates to allow for efficient air flow around the plates) and then 2-mecaptoethanol was added to each well in one of the plates to a final concentration of 2 mM. The plates were then grown for an additional ˜46 hours. The 96-well filter plates containing the culture broth (with or without added 2-mecaptoethanol) were then assayed for BBI and BCE activity.
Libraries were analyzed using dilutions of cultures grown in 96-well plates. Typically, the culture broth from each well was diluted (200 fold) in Assay Buffer (100 mM Tris pH 8.6, 0.005% Tween 80) and transferred to a second microtiter plate (CoStar 9017, Corning, Inc., Corning, N.Y.). Then, 20 μl of the diluted samples were transferred to a third microtiter plate. A standard curve was created by adding 20, 10, 5 or 2.5 μl of the diluted sBBI (SEQ ID NO:13) control culture to empty wells. Then, 80 μL of 50 ng/ml trypsin (bovine pancreatic trypsin, Worthington Biochemical Corp., Lakewood, N.J.) (prepared from a 1 mg/mL stock solution diluted into Assay Buffer) was added to each well of the plate. The reactions were mixed and incubated 15 min at room temperature. After the incubation, 100 μL of 0.5 mg/ml trypsin substrate (succinyl-Ala-Ala-Pro-Arg-para-nitroanilide, Bachem Bioscience, Inc., King of Prussia, Pa.), diluted in Assay Buffer from a 100 mg/ml solution in DMSO, was added to each well, mixed, and the absorbance at 405 nm was monitored for 15 min, with 1 time point recorded every 12 sec using a Spectra Max 250 (Molecular Devices). The data points were used to determine the rate for each reaction. The standard curve was generated by plotting the reaction rate versus the BBI volume and was fitted to a four-parameter equation. All data fitting was done using software supplied by the manufacturer (Molecular Devices Corp., Sunnyvale, Calif.). The activity of each BBIt-AV variant was calculated from the standard curve. Thus, the activities of all modified variant proteins were determined relative to the activity in the sBBI control (BBI-WT) culture.
The concentration of BCE was determined by an activity assay using purified BCE as a standard as described above and by (Vogtentanz et al. 2007). For the analysis of libraries grown in 96-well microtiter plates, 20 μl of culture broth were transferred to each well of a new microtiter plate. A standard curve was created by adding 20, 10, 5 or 2.5 μl of the diluted BBI-WT control culture to these empty wells. Then, 180 μl of the BCE substrate (0.25 μg/ml in Assay Buffer), 4-nitrophenyl β-D-cellobioside (Sigma, St. Louis, Mo.), was added to the plate. The plate was mixed and the absorbance at 405 nm monitored for 15 min, with 1 time point recorded every 12 s using a Spectra Max 250 (Molecular Devices Corp., Sunnyvale, Calif.). The data points were used to determine the rate for each reaction. The standard curve was generated by plotting rate versus culture volume and was fit to a quadratic curve. The BCE concentration in each variant culture was determined relative to the standard control culture. […]
Take B1: the “relative activity of the amino acid substitution (BBI:BCE activity ratio vs BBIt-AV), amino acid present in BBIdb-AV” value is “S (+/−)”.

As for B2, the “relative activity of the amino acid substitution (BBI:BCE activity ratio vs BBIt-AV), amino acid present in BBIsb3-AV” value is “N (+/−)”.

Regarding B3, the “relative activity of the amino acid substitution (BBI:BCE activity ratio vs BBIt-AV), amino acid present in BBItc-AV” value is “F (+/−)”.

Take B4: the “relative activity of the amino acid substitution (BBI:BCE activity ratio vs BBIt-AV), amino acid present in BBIdb-AV” value is listed as “M (−)”.

For B5, the “relative activity of the amino acid substitution (BBI:BCE activity ratio vs BBIt-AV), amino acid present in BBIsb3-AV” value is “K (+/−)” and the “relative activity of the amino acid substitution (BBI:BCE activity ratio vs BBIt-AV), amino acid present in BBItc-AV” value is reported as “K (+/−)”.

For B6, the “relative activity of the amino acid substitution (BBI:BCE activity ratio vs BBIt-AV), amino acid present in BBIdb-AV” value was “V (+)”.

Regarding B7, the “relative activity of the amino acid substitution (BBI:BCE activity ratio vs BBIt-AV), amino acid present in BBIsb3-AV” value was “T (−)****”.

In the case of B8, the “relative activity of the amino acid substitution (BBI:BCE activity ratio vs BBIt-AV), amino acid present in BBIdb-AV” value is “K (−)”.

Source of the values: patent publication US7772181B2, “Personal care compositions comprising modified variant Bowman Birk Protease Inhibitors” (Danisco US Inc., priority 2008, dated 2010).
